The source of these data is patent publication US20190367612A1 (Daiichi Sankyo, published 2019).

Sequences and labels used below:
T1: human GPRC5D amino-terminal peptide MYKDCIESTGDYFLLCDAEGPWGIILE-K(Biotin)-NH2, having an intramolecular … (human, C-terminal lysine carrying biotin, C-terminal amide; intramolecularly formed disulfide bond)
T1 construct: Peptide Institute synthetic peptide; also called amino-terminal peptide of biotinylated human GPRC5D (disulfide bond present)
T1 peptide: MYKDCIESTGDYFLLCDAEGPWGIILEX

B1: E1018 scFv (high binding mutant of C3022) (scFv)
chain: QVQLVQSGAEVKKPGASVKVSCKASGYTFTGYYMHWVRQAPGQGLEWMGRINPNSGGTNYAQKFQGRVTMTRDTSISTAYMELSGLRSDDTAVYYCKSGSVRPPWGQGTLVTVSSGGGGSGGGGSGGGGSQPVLTQPPSASGTPGQRVTISCSGSRSNIGGNIVSWYQQFPGTAPRLLTYRNTRRPSGVPDRFSGSKSGTSASLAISGLQSEDEADYYCAAWDDSLGGVVFGGGTKLTVL
B2: humanized anti-GPRC5D antibody h7B4_H3/L2 (antibody, human IgG1, kappa)
heavy: not shown
light: DIQMTQSPSSLSLSPGERATLSCKASQNINKYLDWYQQKPGQPPRLLIYNTNNLHTGIPDRFSGSGSGTDYTLTISRLEPEDFAVYYCLQRNSWYTFGQGTKVEIKRTVAAPSVFIFPPSDEQLKSGTASVVCLLNNFYPREAKVQWKVDNALQSGNSQESVTEQDSKDSTYSLSSTLTLSKADYEKHKVYACEVTHQGLSSPVTKSFNRGEC
notes: Human IgG1 / kappa
B3: humanized anti-GPRC5D antibody h7B4_H1/L2 (antibody, human IgG1, kappa)
heavy: not shown
light: B2 light
notes: Human IgG1 / kappa
B4: humanized anti-GPRC5D antibody h7B4_H2/L2 (antibody, human IgG1, kappa, V domains shown)
VH: EIQLQESGPGLVKPSQTLSLTCTVSGYTITSGYDWSWIRQPPGKGLEWIGYMSYRGSTNYNPSLKSRVTISRDTSKNQFSLKLSSVTAADTAVYYCALTRTYWYNYYYVLDAWGQGTLVTVSS
VL: DIQMTQSPSSLSLSPGERATLSCKASQNINKYLDWYQQKPGQPPRLLIYNTNNLHTGIPDRFSGSGSGTDYTLTISRLEPEDFAVYYCLQRNSWYTFGQGTKVEIKR
notes: Human IgG1 / kappa
B5: humanized anti-GPRC5D antibody h7B4_H5/L1 (antibody, human IgG1, kappa, V domains shown)
VH: B4 VH with Q40K, K44N, G45K, L46M, G50A
VL: B4 VL with D1E, Q3V, M4L, S9G, S10T
notes: Human IgG1 / kappa
B6: humanized anti-GPRC5D antibody h7B4_H3/L1 (antibody, human IgG1, kappa)
heavy: not shown
light: B2 light with D1E, Q3V, M4L, S9G, S10T
notes: Human IgG1 / kappa
B7: anti-GPRC5D-anti-CD3 bispecific molecule C3022-C3E7036 (bispecific antibody)
scFv: GQVQLVQSGAEVKKPGASVKVSCKASGYTFTGYYMHWVRQAPGQGLEWMGRINPNSGGTNYAQKFQGRVTMTRDTSISTAYMELSGLRSDDTAVYYCASGSVRHPWGQGTLVTVSSGGGGSGGGGSGGGGSQPVLTQPPSASGTPGQRVTISCSGSRSNIGGNIVSWYQQFPGTAPRLLTYADNQRPSGVPDRFSGSKSGTSASLAISGLQSEDEADYYCAAWDDSLNGVVFGGGTKLTVLGGGGSEVQLVESGGGLVQPGGSLRLSCAASGVTFNYYGMSWIRQAPGKGLEWVASITNSGGRIYYPDSVKGRFTISRENTQKTLYLQMNSLRAEDTAVYYCTLDGRDGWVAYWGQGTLVTVSSGGGGSGGGGSGGGGSNFMLTQPSSVSGVPGQRVTISCTGNTGNIGSNYVNWYQQLPGTAPKLLIYRDDKRPSGVPDRFSGSKSGTSASLAITGFQAEDEADYYCQSYSSGFIFGGGTKLTVLGAAAGAGGDYKDDDDKGAAAHHHHHH
notes: Tandem scFv
B8: anti-GPRC5D-anti-CD3 bispecific molecule C3048-C3E7036 (bispecific antibody)
scFv: GQVQLVQSGAEVKKPGSSVKVSCKASGGTFSRYAISWVRQAPGQGLEWMGGIIPIFGTANYAQKFQGRVTITADQSTRTAYMDLGRLRSEDTAVYYCALEGFRDSLKRNPFDIWGQGTMVTVSSGGGGSGGGGSGGGGSQSVVTQPPSVSAAPGQKVTISCSGGTTNIGSNYVSWYQQLPGTAPKFLMYENNKRPSGIPDRFSGSKSGTSATLAITGLQTGDEATYYCSTWDSSLNTGLFGGGTKLTVLGGGGSEVQLVESGGGLVQPGGSLRLSCAASGVTFNYYGMSWIRQAPGKGLEWVASITNSGGRIYYPDSVKGRFTISRENTQKTLYLQMNSLRAEDTAVYYCTLDGRDGWVAYWGQGTLVTVSSGGGGSGGGGSGGGGSNFMLTQPSSVSGVPGQRVTISCTGNTGNIGSNYVNWYQQLPGTAPKLLIYRDDKRPSGVPDRFSGSKSGTSASLAITGFQAEDEADYYCQSYSSGFIFGGGTKLTVLGAAAGAGGDYKDDDDKGAAAHHHHHH
notes: Tandem scFv

Residue numbers refer to the chain shown, from its start.

In one assay the target is T1, human GPRC5D amino-terminal peptide …. The experiment in a line: SPR (Biacore T200), kinetic analysis: biotinylated amino-terminal peptide of human GPRC5D on Sensor Chip CAP, scFv as analyte. The method, then: The binding activity of the anti-GPRC5D antibodies against the amino-terminal peptide of human GPRC5D was tested by SPR using Biacore T200. The amino-terminal peptide of biotinylated human GPRC5D diluted to 2 nM with HBS-EP+ (manufactured by GE Healthcare Bio-Sciences Corp.) was immobilized on Sensor Chip CAP (manufactured by GE Healthcare Bio-Sciences Corp.) by contact at a rate of 10 μL/min for 180 seconds. Then, Kd was calculated by kinetic analysis using a plurality of concentrations of each scFv diluted with HBS-EP+ as analytes.
In general terms: SPR reads the build-up and loss of mass on a sensor chip optically.
On to B1, for which the affinity, expressed as Kd, was 0.0032 nM.

In a further assay the target is T2, human GPRC5D (human, UniProt Q9NZD1 1-345).
T2 construct: whole, on cells; also called hGPRC5D; G-protein coupled receptor family C group 5 member D
T2 sequence (Q9NZD1 whole entry): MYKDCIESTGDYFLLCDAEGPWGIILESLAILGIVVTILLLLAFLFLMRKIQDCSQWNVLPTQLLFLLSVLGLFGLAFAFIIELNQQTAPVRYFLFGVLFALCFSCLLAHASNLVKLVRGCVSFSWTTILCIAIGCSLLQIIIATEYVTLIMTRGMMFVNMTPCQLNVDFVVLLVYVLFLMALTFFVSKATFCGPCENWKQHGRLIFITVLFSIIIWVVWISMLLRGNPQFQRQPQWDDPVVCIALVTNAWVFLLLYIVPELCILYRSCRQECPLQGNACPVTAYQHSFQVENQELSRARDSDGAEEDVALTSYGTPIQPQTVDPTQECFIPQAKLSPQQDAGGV
The experiment in a line: flow cytometry on KHM-1B cells (human GPRC5D), culture supernatant, PE anti-human IgG Fc, rMFI over human IgG isotype control. The method, then:
Human multiple myeloma cell line KHM-1B cells expressing GPRC5D were adjusted to a concentration of 2×10⁶ cells/mL with PBS containing 5% FBS, inoculated in an amount of 100 μL/well to a 96-well U-bottomed microplate, and centrifuged to remove a supernatant. The culture supernatant of each humanized anti-GPRC5D antibody obtained in Example 8)-3-1 or Human IgG isotype control antibody (Calbiochem/Merck Millipore Corp.) adjusted to 14 ng/mL to 30 μg/mL was added thereto in an amount of 100 μL/well, and the plate was left standing at 4° C. for 1 hour. The cells were washed twice with PBS containing 5% FBS. Then, R-Phycoerythrin AffiniPure F(ab′)2 Fragment Goat Anti-Human IgG, Fcγ Fragment Specific (Jackson ImmunoResearch Laboratories, Inc.) diluted 100-fold with PBS containing 5% FBS was added thereto in an amount of 100 μL/well, and the plate was left standing at 4° C. for 1 hour. The cells were washed twice with PBS containing 5% FBS and then resuspended in PBS containing 5% FBS, followed by detection using a flow cytometer (FACSCanto™ II; Becton, Dickinson and Company). The data was analyzed using Flowjo (Tree Star, Inc.). The PE fluorescence intensity of the cell fraction was plotted to a histogram, and the mean fluorescence intensity (MFI) was calculated. The MFI value of the control antibody was subtracted from the MFI value of the GPRC5D antibody to calculate a relative value of MFI (rMFI).
In the case of B2, the binding result is “binds”.
As to B3, the binding result is “binds”.
B4: the binding result is listed as “binds”.
Regarding B5, the binding result is “binds”.
On the same count and under the same terms, the result for B6 reads “binds”.

The next assay addresses T3, cynomolgus monkey GPRC5D (cynomolgus monkey).
T3 construct: whole, on cells; Stably expressed on KMS-11 cells (KMS-11_cGPRC5D); also called cGPRC5D
Put plainly: flow cytometry on KMS-11_cGPRC5D cells (cynomolgus monkey GPRC5D), PE anti-human IgG Fc detection, rMFI = MFI minus isotype control.
Take B2: the EC50 (read off the curve) (usually the concentration needed to bring the measured effect to its halfway point) is about 2 nM.
In the case of B3, the “EC50 (read off the curve)” value was about 3 nM.
Regarding B4, the “EC50 (read off the curve)” value is about 2 nM.
As to B5, the “EC50 (read off the curve)” value was about 2 nM.
On to B6, for which the “EC50 (read off the curve)” value was about 2 nM.

The target in another assay is T2, human GPRC5D. The experiment in a line: flow cytometry on A4/Fuk cells (endogenous human GPRC5D), Penta-His Alexa Fluor 488 detection, rMFI = MFI minus sample without antibody. The protocol:
Lymphoma cell line A4/Fuk cells (JCRB Cell Bank) were adjusted to an appropriate concentration with PBS containing 5% FBS. LIVE/DEAD Fixable Near-IR Dead Cell Stain Kit was added to the cells, which were then left standing at 4° C. for 30 minutes. The cells were washed twice with PBS containing 5% FBS, then adjusted to a concentration of 1×10⁶ cells/mL with PBS containing 5% FBS, inoculated in an amount of 100 μL/well to a 96-well U-bottomed microplate, and centrifuged to remove a supernatant. Each anti-GPRC5D-anti-CD3 bispecific molecule (C2037-C3E7034 to C3022-C3E7036 prepared in Example 12) diluted with PBS containing 5% FBS were added thereto in an amount of 100 μL/well, and the plate was left standing at 4° C. for 60 minutes. The cells were washed twice with PBS containing 5% FBS. Then, Penta-His Alexa Fluor 488 diluted with PBS containing 5% FBS was added thereto in an amount of 30 μL/well, and the plate was left standing at 4° C. for 30 minutes. The cells were washed twice with PBS containing 5% FBS and then resuspended in PBS containing 5% FBS, followed by detection using a flow cytometer (FACSCanto™ II). The data was analyzed using Flowjo. The mean fluorescence intensity (MFI) of Alexa Fluor 488 in a fraction free from dead cells was calculated. The MFI value of the antibody-unsupplemented sample was subtracted from the MFI value of the antibody-supplemented sample to calculate a relative value of MFI (rMFI).
A general note: In flow cytometry, cells or beads pass a laser one at a time.
Consider B7, for which the binding result is recorded as “binds”.
Turning to B8, the binding result is recorded as “binds”.
